B1: WT-Sx4-GST (C-terminally GST-tagged Syntaxin 4 cytosolic domain) [not stated] / His-SNAP23 (N-terminally His-tagged SNAP23) [not stated] (parent)
chain 1: MRDRTHELRQGDNISDDEDEVRVALVVHSGAARLGSPDDEFFQKVQTIRQTMAKLESKVRELEKQQVTILATPLPEESMKQGLQNLREEIKQLGREVRAQLKAIEPQKEEADENYNSVNTRMKKTQHGVLSQQFVELINKCNSMQSEYREKNVERIRRQLKITNAGMVSDEELEQMLDSGQSEVFVSNILKDTQVTRQALNEISARHSEIQQLERSIRELHEIFTFLATEVEMQGEMINRIEKNILSSADYVERGQEHVKIALENQKKARKKKV
chain 2: MDNLSPEEVQLRAHQVTDESLESTRRILGLAIESQDAGIKTITMLDEQGEQLNRIEEGMDQINKDMREAEKTLTELNKCCGLCICPCNRTKNFESGKNYKATWGDGGDNSPSNVVSKQPSRITNGQPQQTTGAASGGYIKRITNDAREDEMEENLTQVGSILGNLKNMALDMGNEIDAQNQQIQKITEKADTNKNRIDIANTRAKKLIDS

Variants of: B1
Assay: GST pull-down (glutathione sepharose), immunoblot, ImageJ quantification
Conditions: with His-SNAP23 (N-terminally His-tagged SNAP23); 30 min; 1–5 μg Sx4-GST variant on beads, excess His-SNAP23, 4 °C; read off a plot

Q: With chain 1 L173A E174A as the variant, how does the response (relative amount bound) read?
A: 0.77

Same assay, conditions: with His-SNAP23 (N-terminally His-tagged SNAP23); 60 min; 1–5 μg Sx4-GST variant on beads, excess His-SNAP23, 4 °C; read off a plot

Q: chain 1 L173A E174A was tested. Which response (relative amount bound) did it give?
A: 1.7
